Results published in a protein production outcome set (Wang et al. 2014).

Assay: label from the status in PepcDB records
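Further: failed if final PepcDB status was selected cloned or expressed and not failed if soluble or beyond.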

| Sequence | protein production |
| --- | --- |
| MTTMVNVDTLPEYEKSQIKRALELGTVMTVFNARKSTPERRTVQMIMETRQVAWSKTADKIEGFLDIMEIKEIRPGKNSKDFERAKAVRHKAECCFTILYGTQFVLSTLSLATDSKEDAVKWLSGLKILHQEAMSASTPTMIESWLRKQIYSVDQTRRNSISLRELKTILPLVNFKVSGIKFLKDKLVEIGAQKDELSFEQFHLFYKKLMFDQQKSILDEFKKDSSVFILGNTDRPDASAVYLQDFQRFLLHEQQELWAQDLNKVRERMTKFIDDTMRETAEPFLFVDEFLTYLFSRENSIWDEKYDAVDMQDMNNPLSHYWISSSHNTYLTGDQLRSESSTEAYIRCLRAGCRCIELDCWDGPDGKPIIYHGWTRTTKIKFDDVVQAIRDHAFVTSSFPVILSIEEHCSVEQQRHMAKVFKEVLGDMLLTKPTEASADQLPSPSQLREKIIIKHKKLGPKGDVDVNVEDKKDEHKPQGELYMWDSIDQKWTRHYCAIADAKLSFGDDIEQAVEEEPVQDTPPTELHFGEKWFHKKVESRTSAEKLLQEYCAETGAKDGTFLVRESETFPNDYTLSFWRSGRVQHCRIRSTMENGVMKYYLTDNLTFNSIYALIQHYREAHLRCAEFELRLTDPVPNPNPHESKPWYYDSLSRGEAEDMLMRIPRDGAFLIRKREGTNSYAITFRARGKVKHCRINRDGRHFVLGTSAYFESLVELVSYYEKHALYRKMRLRYPVTPELLERYNMERDINSLYDVSRMYVDPSEINPSMPQRTVKALYDYKAKRSDELTFCRGALIHNVSKEPGGWWKGDYGTRIQQYFPSNYVEDISAGDAEEMEKQIIEDNPLGSLCKGILDLNTYNVVKAPQGKNQKAFVFILEPKKQGDPPVEFATDRVEELFEWFQSIREITWKMDTKENNMKYWERNQSIAIELSDLVVYCKPTSKTKDHLENPDFREIRSFVETKADSIVRQKPVDLLRYNQKGLTRVYPKGQRVDSSNYDPFRLWLCGSQMVALNFQTPDKYMQMNHALFSLNGRTGYVLQPESMRSEKYDPMPLESQRKILMTLTVKVLGARHLPKLGRSIACPFVEVEICGAEYDSNKFKTTVVNDNGLSPVWAPTQEKVTFEIYDPNLAFLRFVVYEEDMFSDPNFLAHATYPIKGIKSGFRSVPLKNGYSEDIELASLLVFCEMRPVLESEEELYSSCRQLRRRQEELNNQLFLYDTHQNLRGANRDALVKEFNVNENQLQLYQEKCNRRLREKRVSNSRFYS | not failed |
| MAADESYPSVKERAFFQGLPFDYAVVFDNALIDRLFSRLRQERALVEDGLLARPDHRPWRLGALITEADTLDRRLSEQIRCLSGQSLPVASIALVTATTEAREAVSLWASVTCPPNVVVTPDPRAWMAEADLDLVVVFAPGALAHPGLFAALGRALQRDGADFAVWNHLLVRRRAEAPGQDITYLRCPDPTRQPVALAHMEAAGPAWAATPRLFETIKGDLGKALIGMARHPLSIALLRGKPKVVRLNEFLGACRVDSLGTPPWPRQSALVEAYGAALEDETFRLEIDPAHPTQPIRLTPRRRAHSIDIVINFRDKPELTLAAMGSIYAQTTTARVSLFLIDNQSTPAARAAIDAEAARAPAGIAVRVLSYDRPFNHSAQTNLGAAAGNGEALVFMSNDCALVDPGALDEMAAWALAPGVGTVGVRLETAEGRLACSGICALYPDHDFHPIVAEGFDQLGAGLNRETFANTFACACLARAVFRQAGPLDAIGFPIGLNDVDYCLRLRERGLRHLYLGAFLARHQALGSRPASDDGAQSAFLRQTYGHLLFDKEYMLEYDFLRQFTAAKLRQDIRSQRDKTTTVLEHHHHHH | failed |
| ALFHKKLTEGVLMRDPKFLWCAQCSFGFIYEREQLEATCPQCHQTFCVRCKRQWEEQHRGRSCEDFQNWKRMN | not failed |
| MSAYIAPSQIAQRQLEYFNGKHVLVAGEVEDMFPLELTAHCESVEVFTSNYSYFRQIRHSDKIKSHFGSEFDVETQADMLLLYWPKAKAEAEYLLAMLMAKLGVNTEIVVVGENRSGVKSIEKMFKEYGPVNKYDSARRCSFYWGNCLNEPKPFNQEEWFKSYTVTLGEQSLTVKSLPGVFSHGEFDLGSRLLLETLPNLSGKVLDFGCGAGVLGAFMAKANPEIAIEMCDINAYAITSSQATLEANGLSGRVFASDIYSDTANDYRFIISNPPFHSGLDTNYNAAETLLGHAPQHLSNHGEMIIVANSFLKYPPIIENAFNNCETLNKTNKFSIYYAKKS | failed |
| MPLELVVIHSYKSSDMKPYLLSAFAAILSTSAMAYDVKSGGKTSVKKDGANAYSLPATNLPMSKRLDFSVGNSFFRNPWVQAPATTDARDGLGPLFNTNGCQNCHIKDGRGHPPEKDDIHAVSMLVRLSIPAMTPKQKKAYIMDGGIPEPTYGGQLQDFALQDQTPEGKIAITYTDVPVEFKDGSKVTLRKPTLKITDLGYGDMHPDTQFSARVAPPMIGLGLLESIPDETLLKWADENDSDSDGISGKVNKVWDIEKGDFSLGRFGWKAGQPTLMQQNAAAFNGDVGLTSHLFPNENCTAKQSLCEELPNGGKPEVSQNILDFVEFYSQHLAVPIRRNVNDPDVQLGQKIFAASGCESCHKTSVKTTKRADRPALSEQLIHPYTDLLLHDMGEGLADHRPEYLANGREWRTPPLWGIGYTEEVNGHTYFLHDGRARNLMEAVLWHGGEAEQAKQNVLSLNQKERDALIAFLNSL | failed |
| PPVIRQGPVNQTVAVDGTFVLSCVATGSPVPTILWRKDGVLVSTQDSRIKQLENGVLQIRYAKLGDTGRYTCIASTPSGEATWSAYIEVQEFGVPVQPPRPTDPNLIPSAP | not failed |
| IQNVLSYITEHFSEGMSLKTLGNDFHINAVYLGQLFQKEMGEHFTDYLNRYRVNYAKEELLQTKDNLTIIAGKSGYTDMAYFYRQFKKHTGETPNRYRKIHQ | failed |
| MSPSPLISHRAASADLAGMVRQARQRILLQGNVPGFDVARQIELLHGLAESELGRFLLLYRGLNAEWTHRLVTHQPGSGALAPLERVFYERLPAVLATRERHGHFRRALQRHLRPGCVVASVPCGWMSELLALDYSACPGVQLVGIDYDPEALDGATRLAAGHALAGQITLHRQDAWKLDTREGYDLLTSNGLNIYEPDDARVTELYRRFWQALKPGGALVTSFLTPPPALSPDSPWDMQAIDPHDLQLQQLVFTRLIQPRWNALRTHAQTRAQLEEAGFTDLRFEDDRARLFPTVIARKPA | not failed |
| MSELRILRAVDYPRMPWKNGAGSTEEIARDGGDGLDGFGWRLSIADVGESGGFSGFAGYQRIISVLEGGGMRLRVDGAESAPLRARQAFAFSGDSEVHCTLLDGAIRDFNLIYAPRRHRARLQWLRVEGELDWHGTASTLLLFAQQDGVAISLQGQPRGQLAAHDCLCAEGLQGLQHWRLTAHEPAWVCAVELDSL | not failed |
| MRLTGEIMKIITCFKLVPEEQDIVVTPEYTLNFDNADAKISQFDLNAIEAASQLATDDDEIAALTVGGSLLQNSKVRKDVLSRGPHSLYMVQDAQLEHALPLDTAKALATAVEKIGFDLLIFGEGSGDLYAQQVGLLVGELLQLPVINAVSAIQRQGNTLVIERTLEDDVEVIELSVPAVLCVTSDINVPRIPSMKAILGAGKKPVNQWQASDIGWSQSAPLAELTGIRVPPQTKRKHIILDNDSPEAIAELAEHLKKALN | failed |
| PIGKSADNMYSYLALVQDDPTVQVVNMAQKAYVEHYIQGDPDLAKLPVLSAAAPFKVGGRKNDPASFVEVEKGQLTFRNAADLYLYPNTLVVMKVSGKEVKEWLECSAGQFNQIDPASSKPQSLINWDGFRTYNFDVIDGVNYQIDVTQPARYDGECQMIHPQAERIKHLTFNGKPVDPQATFLVATNNYRAYGGKFAGTGESHIAFASPDENRSVLAAWIGAQSKKEGAIHPAADNNWRLAPIHSN | failed |
| MKKPFFGFMFIALFSASLFCNPADLYQKGAEYQANEDWYGAIEMYQSALKENPSYNLVYQGLAECFYALDEYDQALSFVESARKYKKDDPDLQNLHGFILVGLGKIDAAKTLFNGVLKKYPNNPEARFGLAEIEVSQGKLYLASEMYKQNLQRQGENRKDLLSLALVSYEAGNVKQAEDYINRALKYHGDNPQVHYFAAYLHSLDGKLEEAEGRIYSALKLKEDYDEAYALLASVLYAQKRYEEVIKISDMRISKKRDRADAWYLKTLSLRQLARYGEAINAAKVGLSLDADDEIMRCLLEELAIENLNFEDSFRMELSKYHAQKALGFFRRNMTEQALYEYRRTLKIYPYDVESREAYAGILLRLGYPERYLEQMLFIQSIVKSNTKVNDAVEAYEKHLLSSIQSKWRIDPLYLDKAHISIGLFYTMESSNVLHPEAERITQILTSDIFSYNPRIKITSYSDKPVTYREASKKSRTANEDYFGIIRLKENRRDIQIILELYVSRTGSPAKTFTVYRSGNDRFSNGIRRLSSMLNEAMPIVGKLINRYQNEAVIDIGKHDSDFKDLKIAVIRKDRLVIEKEGLGMVFDPSDLLGYFEPSKSEENLSEGILKRNGYYDRMNAGDSIILVSENAKEKAAEDYTNSYQKNSLLLLLLRRIR | failed |
| MEKCSVGGLELTEQTPALLGNMAMATSLMDIGDSFGHPACPLVSRSRNSPVEDDDDDDDVVFIESIQPPSISAPAIADQRNFIFASSKNEKPQGNYSVIPPSSRDLASQKGNISETIVIDDEEDVETNGGAEKKSSFFIEWGLPGTKNKTNDLDFSTSSLSRSKTKTGVRPFNPGRMNVAGDLFQNGEFATHHSPEMHLQRRLMSFFQ | not failed |
| MSSQTILSVNNLSVSFTTNDGIVDAVKNVSFELQAGETLSIVGESGSGKSVSTNALMTLLPDNAIVHPDSSIMFEGESILDKTERQMQRIRGDRIGMIFQEPMTSLNPYMRVGIQVAEAMMCHRSVNQRKAKERVLELFDLVHLPNPQQAYDKYPHEFSGGQLQRIMIAMALINEPDILIADEPTTALDVTVQAEVLLLIKEIQAKMGMAILFITHDLGVVKHFADRVLVMCKGEVVEEGITEHLFSEPQHEYTKMLINSIPKGSKTPVDEKASELLNAEDIR | not failed |
| MMRHERLRFWLAGLAAAATGWLCYAGLARLAGALGVATWIPYPALRRQWLLIGESWQSAEFSGAIADASVFLTALAAVAAYYCARIVYHLSFAPVRQRRARWLIAGWIVGTVAMVALSQSLGWLYGAFPGFARIGWLSAALGFAVLAGAASGFARAWGRLMRARKVPATE | failed |
| MKLALVNRQVILPESGTESFQCHASTLVRLPCGTLVAAWFAGLREGSEDTAIWLSRYEHNIWTTPQRVAAREGEAHWNPVLFYPSDKLWLFYKVGSDVHVWKTWFITSSDRGFTWSTPAPLVNDDILPRGPVKNKLLLASNGAWIAPGSIESPERWRAFVDRSSDEGKHWSISFVPLEPDNAISGTNVALWDGIKKGRLWECCLENLLRWDGVIQPTLWESSPGHIHMLLRSTRGAIFRSDSIDYGATWSVARATSLPNNNSGIDLVSMQDGTLILALNPVNGNWGKRYPLSLIASQDNGESWLPLLDLESDHGEYSYPAIISEGGIVHITYTWNRKNIVYCRLQTVLEHHHHHH | failed |
| GSSGSSGMSSMTQNLREVMKVMFKVPGFDRVLEKVTLVSAAPEKLICEMKVEEQHTNKLGTLHGGLTATLVDSISTMALMCTERGAPGVSVDMNITYMSPAKIGEEIVITAHILKQGKTLAFASVDLTNKTTGKLIAQGRHTKHLGNSGPSSG | not failed |
| HNESIRYLIVPGWQGSPDDHWQAHWQNSLPNSTRVEQADWLKPRREDWVGELQRTIAAQSTPVILIAHSLGCVTVAHWAQLAPLETLRQVQGALLVAPADVERPNCPPALRNFAPIPADLLPFPTQVVSSDNDPAVSSQRAIEMARHWGAELGFLSQAGHINVKSGHQRWEQGFAYLYRLQNRLEQ | failed |
| MFASLVIPVSAQANSGEMPQEQQLAVKYMDALTEHDYKTLITFYNRDSIFFDKTANRKYTGGRFIIDFLERAHQGVLEYDFNIEHMYNAGSLVVMIGNYHFKGPGEQFGKPGKIIDVAIPAVTSLKLDMLNRRVTEHVDLIDYQTMSDQLAMQ | not failed |
